Experimental data reported in doi:10.1101/626572.

Biological target: Concanavalin A (Con A) (UniProt P02866;P02866 164-281;30-148)
Assay: particle-based flow cytometry

Chain of Concanavalin A (Con A) (P02866 164-281, chain 1 of 2): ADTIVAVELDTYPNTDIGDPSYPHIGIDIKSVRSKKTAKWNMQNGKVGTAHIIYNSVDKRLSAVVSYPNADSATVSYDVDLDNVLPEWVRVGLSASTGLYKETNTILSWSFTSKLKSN
Chain of Concanavalin A (Con A) (P02866 30-148, chain 2 of 2): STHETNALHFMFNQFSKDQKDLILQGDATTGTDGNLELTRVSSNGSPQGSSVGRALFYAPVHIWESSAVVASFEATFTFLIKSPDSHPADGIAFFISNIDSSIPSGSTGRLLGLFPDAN

B1: ConA-3-1n (ssDNA)
DNA: GATCCCAGTCCGAAGTAATCGTTGCATCTGCACGACTGGTGAGCTTGAGTGGCAGAAGAACTTGTGCAAACGGCTATAGG
B1: no binding.
